Laboratory results published in the NTF2 design screens of Basanta et al. (2020).

Experiment: protease stability score; higher = more stable; yeast display proteolysis, trypsin and chymotrypsin;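 note: relative to predicted unfolded state with 0 unfolded-like and 1 meaning tenfold more protease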

Sequence | protease stability score
SEWEEFMERMLELVIEVMKTGDFDRFRSLFDPHVKIRIIIGDKHHEFHGWLWLRTLIEKMGIDHLQINVRSYRIIGDKLEVDGELLSHYNGRTSHRTVHYHIVIINGRLHHITIEYH | 0.214
SEWEEISRKISRDWTEWLETGDFETFMNYVDPNARYRQGDKDLHGMETLHRYIYHMRMHIRIRRIDHQGDYILIDGELELRQGDKTHRFESIIYIIVIDGKLRRFEIRER | 0.733
SEWEHNLQRFIEELIEDARTGNEENIRENMDPDVRAEVDGQELHGREAQRFVRERIDVIKHNHLREIRFQGDFIHVRGELRGEVNGKEVHTDTHFVIWKFNGRWIIRHVLIR | 1.03
SEWEKDLELALRFVMHAFTTGNWEDLLKFFDPDVRIEVGDKEIHGRHVFFEFLEKLGVKHLRLEIELNHFEIQGDKIHEHGIYRFTYHYNGRVEKKEHDTRVHVTKINGRWYLTHQRVD | 0.668
SEWEKQLRHMVHLVLLAVRTGNEHLLNELLDPDTRAVFNGVESVGREDMWRMLKHLRIERVRVHDERHDDQGNKARFILLGETQVNVNGKVLETHTEIEIILIKVDGQWTFETLTFRIT | 1.55
SEYEDLIKTALHLWHEIFLTGNEDVLHRLIDPHVRVTFNGVRNHGRDYLLHHIEELGMEHHNFDISHVDMQGDKIILYTFLHAHVNGRTTSFQLHIFWIKVNGRWIVKRVEIR | 0.759
SEYEEEMRETLELTALYMRTGNEEDMKELMDPDAKIDVGDKHFHGREQVLHVIKHWRSKHIILREVDFQGEYIHSNGQVTTLINGRELDVESRWIILKVDGRWLVHSVLYL | 0.758
SEYEEESRIAYELFLETVRTGDEDTSREQADPNVRVDVNGVHLHGRELWAEFVSKYKGMQLDLHHVEIQGNKVTNDGTLTVNGVRRKVHLRINKVNGKWILESVHIH | 1.32
SEYEEEVRRAMELEIRSIKTGNEELIKHLMDPNVRLVIGDKNFHGREAIEVFVERFDYIHEVEITSIDLQGDFVNMRGVLDGRINGQRLRTKVHYISRKVDGRWFSESIHIR | 0.66
SEYEEFLKEALRILIDDILTGDWRLVYKLFDPETRLNVNGQEIHGRDDVVHHLTHIAREWRMDVKVKEYNVFDGQIHMFGHLQLEFDGREYRRRVELIIIKFNGQWHLRQVVKH | 1.58
SEYEEWSERHLKHWEDARDTGDFDSETDLLDPHMRFQLIIGEKRVRFHGMEVLIEHVLRFKNATVREQKSHVEVIDGRIYIRLEGRYDVNGKDFDVEIIIISEKVNGRWILRYIEIRIH | 1.55
SEYEHEAREVMHRLIHATETGDEEQILRMIDPHVRIDINGVELIGWRHLEEYLRRIDVVYIRIDARRVDVQGDKIRVDTEMDVEVDYDGRKFRHKEKTIIFMHKVDGRWLITSFHVL | 2.7
SEYERDFRYAFNIYARDVLTGDEESLRRLLDPNMRIDVNGVHIHGREHLLQIWHEIRIHHFEIDLKHIEVQGNKIHVHGETHIDGEINGQRDEFKIRDSLLVLKVNGKWIFKRFIVD | 0.951
SEYYEESKRMAEEHQHMRETGDEDRLRHLMDPTTKVEVGDKEFHGREWWHEFYKRFDHIEFRIHDIKLIDGVAIIQSIIIVRQGDKSDTLHVTIRITKVNGRWRTKSFEVI | 1.48
SHDEDRLREMIERWVEFMITGDEDRLRELADPNMRIHVNGKDLHGREEYARWINELGVKHIEITHVDLQGDKIDIVTELRFDGRTHDIHIKARKIDGRWHLTEFREE | 1.34
SHDEELVERVLKMYKHAIETGDEELLTLLLDPDTRLEIDGVDFHGMDIAIHILFKELLRHGIRTEHMRVEDVKVQGDFVHVDVEVNIDVDGREETERRHLVLWKFNGRWRVKHHHIH | 2.35
SHDEEQVDRFLKLWSHAVMTGDWKFMYELLDPHTRLVINGKNVHGREEISKFFHDHVSRIKNLKIEVHLNEVRIFDGRAHLDIEVRIHIGDKNHTIHVEIVVEKVDGRWHVHSIHEK | 1.36
SHDEEWARRFFEDFVRAILTGDEEHLFKNVDPNVRVEIGDKELHGREDFHQHLHEIRIKRFEVHDLTLQGEKVEEDIEMDGQVNGQRFRTRQRVVVDWVNGRFHHLKIEWE | 0.715
SHDELLATRLVEEVWELWLTGDEDRTAELLDPDVRFFFIVGDKTHTFHGRDKIRKLMHDLRNHWRIHHIRIERFRVQGEYSEFDVRSHGRYNGVEEETTVHLSLDVVNGKVKRIIVHIR | 1.6
SHEDELIEKTLHITLEAYTTGDEHTVTRMLDPHVKILFNGVELIGRELVWEHLKEIRMHWHHVHIEDIKRQGEKIHITGRLYMEIRQGDYRERSTYRTRIITLKINGRWFIESLEIN | 1.95
SHEDELIERFYKWLIHILETGDEERWMEYADPDARLLYNGKDLIGRDEARRQMHEMRFHHMEVKSIRVVDGKVNVTGRIDGEINGRHHEHEVLLVIIKFNGKWLIKTVQFH | 1.22
SHEDELNEKIAKTFFKDLLTGDEDSITHLLDPNARVHIHVNGRHILIHGREWLEYLKKHARIRHFELHDMEIQGDKLIFDVEVVIEYGDKVIERRSEEILILFNGRVTSYHLIIK | 1.2
SHEDELSRHILETWKEILDTGDEHTEHELADPNTRIEVDGRDIMGWHAWNHFLRKMGIKHIHFERVSIQGNKIHIDGIMEFDGRRRKTDIDLHVVNGRIESIRYEVK | 1.63
SHEDHLVDLAFEVWRRDLETGDEDLLKKLVDPNVRIIQGDKMYHGMDDYVERLRRIWEELGVDYIQVHLEHSRQVNGVAELDVRLKLRIGDKRREYRLHLHIEKVNGKWQIKQINIQ | 0.277
SHEDKLNEEVARLIIHAWKTGNERLMLKLLDPHTRFEQGDKEMVGREHLLEMLRHRLEELGVDHIDFKDYKIDVVDGVLNIYLRIEIEVGDKHIDMIIKVIVLKFDGRWHVHEVRVEER | 1.5
